These results are taken from patent US20130217572A1, “SPECIFIC DELIVERY OF AGROCHEMICALS” (VRIJE UNIVERSITEIT BRUSSEL, priority 2010, published 2013).

Data set [1] concerns the target T1, potato lectin (Sigma) (potato, UniProt Q9S8M0 23-323).
T1 construct: Bought glycoprotein, coated on ELISA plates
T1 sequence (looked up): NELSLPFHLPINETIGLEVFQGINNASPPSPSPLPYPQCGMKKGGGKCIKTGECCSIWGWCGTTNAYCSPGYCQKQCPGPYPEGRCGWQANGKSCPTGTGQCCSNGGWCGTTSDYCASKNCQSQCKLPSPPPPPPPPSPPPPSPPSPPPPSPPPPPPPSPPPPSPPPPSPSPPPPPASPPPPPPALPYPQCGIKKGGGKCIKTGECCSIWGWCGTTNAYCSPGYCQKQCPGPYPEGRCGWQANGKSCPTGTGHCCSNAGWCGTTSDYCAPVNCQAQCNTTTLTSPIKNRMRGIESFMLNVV
As to the kind of experiment: microcapsule retention; D: carboxyl capsules, EDC/Sulfo-NHS, 0.1 ug VHH/cm2; potato lectin coat 100 ug/ml; 100% coverage.

The target of data set [2] is T1, potato lectin (Sigma). As to the kind of experiment: microcapsule retention; L: amine capsules, BS3 two-step, 0.1 ug VHH/cm2; potato lectin coat 100 ug/ml; 100% coverage.
Data set [3] concerns the target T1, potato lectin (Sigma). As to the kind of experiment: microcapsule retention; D: carboxyl capsules, EDC/Sulfo-NHS, 0.1 ug VHH/cm2; potato lectin coat 1 ug/ml; 100% coverage.
In data set [4] the target is T1, potato lectin (Sigma). Briefly: microcapsule retention; C: carboxyl capsules, EDC/Sulfo-NHS, 1 ug VHH/cm2; potato lectin coat 1 ug/ml; 100% coverage.
Data set [5] deals with T1, potato lectin (Sigma). As to the kind of experiment: microcapsule retention; L: amine capsules, BS3 two-step, 0.1 ug VHH/cm2; potato lectin coat 1 ug/ml; 100% coverage.
Data set [6] deals with T1, potato lectin (Sigma). Briefly: microcapsule retention; D: carboxyl capsules, EDC/Sulfo-NHS, 0.1 ug VHH/cm2; potato lectin coat 10 ug/ml; 100% coverage.
In data set [7] the target is T1, potato lectin (Sigma). Briefly: microcapsule retention; L: amine capsules, BS3 two-step, 0.1 ug VHH/cm2; potato lectin coat 10 ug/ml; 100% coverage.
The target of data set [8] is T1, potato lectin (Sigma). Briefly: microcapsule retention; H: amine capsules, BS3 one-step, 0.1 ug VHH/cm2; potato lectin coat 100 ug/ml; 10% coverage.
For data set [9], the target named is T1, potato lectin (Sigma). As to the kind of experiment: microcapsule retention; C: carboxyl capsules, EDC/Sulfo-NHS, 1 ug VHH/cm2; potato lectin coat 10 ug/ml; 100% coverage.
In data set [10] the target is T1, potato lectin (Sigma). As to the kind of experiment: microcapsule retention; L: amine capsules, BS3 two-step, 0.1 ug VHH/cm2; potato lectin coat 1 ug/ml; 10% coverage.
For data set [11], the target named is unrelated antigens. Briefly: VHH-coupled lambda-cyhalothrin microcapsules retained on wells coated with unrelated antigen; 20% surface coverage.
For the next data set, the target named is T2, potato lectin (Solanum tuberosum, UniProt Q9S8M0).
T2 sequence (Q9S8M0 23-323): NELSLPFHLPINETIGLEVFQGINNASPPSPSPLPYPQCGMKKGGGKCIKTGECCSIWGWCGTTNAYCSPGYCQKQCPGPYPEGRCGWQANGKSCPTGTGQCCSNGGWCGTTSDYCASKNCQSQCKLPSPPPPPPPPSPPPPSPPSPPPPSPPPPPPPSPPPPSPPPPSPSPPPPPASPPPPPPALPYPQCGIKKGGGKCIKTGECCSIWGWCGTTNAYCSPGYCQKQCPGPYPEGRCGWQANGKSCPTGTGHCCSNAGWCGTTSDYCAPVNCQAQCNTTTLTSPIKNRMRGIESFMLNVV
As to the kind of experiment: ELISA-like assay of VHH-coupled microcapsules on antigen-coated wells. As to conditions: microcapsule binding assays. The procedure: An ELISA-like assay setup was used to evaluate the interaction of VHH-coupled microcapsules to antigen-containing surfaces. ELISA plates (Maxisorp (Thermo Scientific Nunc) or high bind half area microplates (Greiner Bio-One)) were coated with gum arabic or potato lectin. Coatings were performed overnight with 100 μg/ml gum arabic or potato lectin in PBS. Control wells included blank wells or wells coated with unrelated antigens. Plates were washed three times with PBS with 0.05%-TWEEN®-20 and blocked with 5% skimmed milk in PBS for 1 to 2 hours. VHH-coupled lambda cyhalothrin-containing or Uvitex-containing microcapsules were diluted to appropriate densities in 1% skimmed milk in PBS with 0.05%-TWEEN®-20. Microcapsules were added to the antigen-coated or control wells and allowed to bind for 1 hour. Unbound microcapsules were removed by washing five times with PBS with 0.05%-TWEEN®-20. The bottoms of ELISA plate wells were analyzed for bound microcapsules on a macrozoom microscope system (Nikon). Microcapsules were counted using Volocity image analysis software (Perkin Elmer). A DAPI filter was used to visualize Uvitex microcapsules. White LED illumination and bright field pictures were used for lambda cyhalothrin microcapsules. Controls for lambda cyhalothrin-containing or Uvitex-containing microcapsules included blank microcapsules and microcapsules to which unrelated VHH were coupled.
For orientation: In an ELISA, binding on a coated surface is turned into a signal by an enzyme label.

The test system of a further data set is potato leaf discs. Briefly: VHH binding at different pH. On the set-up: species or system potato (variety Désirée). As to conditions: 5 μg/ml; whole range tested from pH 2 to pH 11. The procedure:
In order to test applicability of VHH as binders for greenhouse or field applications where binding supposedly may occur at pH-values, deviating strongly from physiological conditions in which antibodies naturally bind their targets, a leaf dip VHH binding experiment was carried out in a series of solutions with different pH. The following solutions were prepared: 50 mM glycine pH 2.0, 50 mM sodium acetate pH 4.0, 50 mm sodium carbonate pH 9.6, and 10 mM sodium hydroxide pH 11.0. ø 8 mm potato leaf discs (variety Désirée) were cut using a puncher tool. The leaf discs were first equilibrated to the different pH by washing three times with solutions at different pH. Hexahistidine-tagged VHH were diluted to 5 μg/ml in solutions with different pH, added to the corresponding equilibrated leaf discs, and binding of VHH was allowed for 1 hour. After incubation with VHH, leaf discs were washed three times with solutions at the corresponding different pH. After that, all were washed two times with PBS to equilibrate leaf discs to PBS. Bound VHH were detected by incubation with monoclonal mouse anti-histidine antibodies directly conjugated with Alexa-488 fluorescent dye (Abd Serotec) in PBS for 1 hour. Unbound anti-histidine antibodies were removed by washing five times with PBS. Leaf discs were analyzed for bound VHH with microscopy.

Data set [12] addresses unrelated antigens. As to the kind of experiment: VHH-coupled Uvitex OB microcapsules retained on wells coated with unrelated antigen; 20% surface coverage.

For the molecule Control VHH, the microcapsule counts (microcapsules) with potato lectin (Sigma) [1] is 515; with potato lectin (Sigma) [2] it was 1110; with potato lectin (Sigma) [3], 227; with potato lectin (Sigma) [4], 193; with potato lectin (Sigma) [5] it was 860; with potato lectin (Sigma) [6], 475. The microcapsule counts (microcapsules) in the data set with potato lectin (Sigma) [7] stood at 787; in the data set with potato lectin (Sigma) [8], 225; in the data set with potato lectin (Sigma) [9], 265; in the data set with potato lectin (Sigma) [10], 116.

B1: VHH 3E6 (VHH)
VHH: QVQLQESGGGLVQPGGTLSLSCAASGFNVRWYGMGWFRQAPGKEREGVACISALQETTAYADSVKGRFTLSRDNPKNTLSLQMNNLQPEDTGVYYCATTDCDDSSRMTYTSYLGQGTQVTVSS
notes: also called Monovalent VHH 3E6
In turn, B1 showed a counts of bound microcapsules (microcapsules) with unrelated antigens [11] of 601. In the data set with potato lectin, the “binding to antigen-coated surfaces when coupled to a microcapsule” value is recorded as “capable of binding specifically to antigen-coated surfaces” and the “binding to surfaces with unrelated antigens when coupled to a microcapsule” value is recorded as “No significant binding”. Moreover, the “binding to leaf discs at different pH” value in the data set on potato leaf discs is listed as “showed detectable binding”. Also, the area of bound microcapsules with unrelated antigens [12] is 47.9.
